{"source": "patent US20220170006A1", "about": "“A PSEUDO-RANDOM DNA EDITOR FOR EFFICIENT AND CONTINUOUS NUCLEOTIDE DIVERSIFICATION IN HUMAN CELLS” (THE BROAD INSTITUTE, INC., priority 2019, published 2022)", "molecules": {"B1": {"name": "pAPOBEC: control plasmid expressing deaminase alone (rat APOBEC1) (protein, UniProt P38483 1-229, looked up)", "C->U-editing enzyme APOBEC-1": "MSSETGPVAVDPTLRRRIEPHEFEVFFDPRELRKETCLLYEINWGGRHSIWRHTSQNTNKHVEVNFIEKFTTERYFCPNTRCSITWFLSWSPCGECSRAITEFLSRYPHVTLFIYIARLYHHADPRNRQGLRDLISSGVTIQIMTEQESGYCWRNFVNYSPSNEAHWPRYPHLWVRLYVLELYCIILGLPPCLNILRRKQPQLTFFTIALQSCHYQRLPPHILWATGLK"}}, "key": {"[1]": {"system": "EGFP gene solely under the control of a T7 promoter (pTarget) in HEK293T cells", "assay": "EGFP expression from pTarget driven by pEditor variants (T7 RNAP transcriptional activity)", "type": "cell-based, human", "settings": "HEK293T cells co-transfected with pTarget and pEditor variant; listed as pAPOEBC", "method": "Each pEditor variant was introduced into HEK293T cells together with pTarget in which EGFP gene was solely under the control of a T7 promoter. […] Scale bar, 200 μm, which also applies to other micrographs. […] Cells transfected with pTarget and pEditor plasmids were incubated for 3 days before being harvested. pTarget plasmids were extracted and PCR reactions were performed to amplify the target region. Sequencing libraries were prepared using the PCR products and next-generation sequencing was performed. Mutation rates in each group, across different pEditor variants, were calculated.\n(§1) HEK293T cells were obtained from ATCC and were grown in high-glucose (4.5 g/L) DMEM supplemented with GlutaMAX™, 1 mM sodium pyruvate, 10% FBS, 100 units/mL of penicillin and 100 μg/mL of streptomycin in a humidified chamber with 5% CO2 at 37° C. Cells were maintained at ˜80% confluence in 24-well plates on the day of transfection. 250 ng of pTarget and 250 ng of pEditor plasmids were mixed together with 1 μl of TransIT-X2 reagent (Mirus) and the mixture was incubated in 50 μl of Opti-MEM® (Thermo Fisher Scientific™) for 30 min. The mixture was then added drop-wise to each well. […]\nTo test whether fusing a cytidine deaminase to T7 RNAP maintained T7 RNAP activity, pTarget and various pEditor plasmids were transfected into HEK 293T cells and EGFP fluorescence under each condition was measured."}, "[2]": {"system": "2000-bp window downstream of a T7 promoter on pTarget in HEK293T cells", "assay": "Mutation rates in the 2000-bp window of the pTarget plasmid by high-throughput sequencing", "type": "cell-based, human", "settings": "cytidine deaminase only", "method": "as §1\nTo sequence the targeted region (˜2000 bp) on pTarget, plasmids were extracted from ˜1 million cells using Qiaprep Spin Miniprep Kit. PCR was performed using those plasmids as templates (primer sequences are shown in Table 2 above. Ampure® XP beads (Beckman Coulter™) were added to samples at a 0.8:1 ratio to size select for the pcr'ed fragments. The concentration of each sample was measured by Qubit™ (Thermo Fisher Scientific™). 1 ng of DNA at a volume of 2.5 μl from each sample was used as input for the subsequent library preparation. Sequencing library was prepared following the Nextera® XT Kit protocol (Illumina®) except that half the amount of each reagent was used. To sequence the targeted loci, genomic DNA was extracted from ˜1 million cells using the Quick-DNA™ Kit (Zymo Research™). […]"}}, "data": [{"molecule": "B1", "values": [{"measurement": "EGFP expression / EGFP signals", "setting": "[1]", "result": "not"}, {"measurement": "C->T and G->A mutation rates compared with background (pT7) error rates", "setting": "[2]", "result": "not statistically different from the background error rates"}]}]}
